Data: patent US20250011363A1, “OPTIMIZED SHORTENED PEPTIDE THAT BINDS TO ACETYLCHOLINE RECEPTOR, AND USE THEREOF” (SKINMED CO., LTD., priority 2021, published 2025)

Target: acetylcholine receptor
Test: SPR, receptor immobilized, peptide 10 uM

| Binder | Binding affinity (RU) |
| --- | --- |
| KPPEKR [6mer-2-812] | 33 |
| RHCGKR [6mer-2-835] | 20 |
| RNTAKK [6mer-2-849] | 13 |
| KFSVRR [6mer-2-819] | 23 |
| KPKMRR [6mer-2-842] | 22 |
| RPNNKK [6mer-2-820] | 24 |
| KICGRK [6mer-2-815] | 30 |
| KDWDRK [6mer-2-840] | 15 |
| KAMKRK [6mer-2-811] | 16 |
| RKTWRR [6mer-2-833] | 14 |
| REMIKR [6mer-2-855] | 19 |
| RCTVRK [6mer-2-838] | 13 |
| KCNDKK [6mer-2-817] | 22 |
| RYMERK [6mer-2-814] | 28 |
| KFWWRR [6mer-2-851] | 19 |
| RMKFKR [6mer-2-830] | 21 |
| RNCERR [6mer-2-852] | 28 |
| KYHNRR [6mer-2-832] | 32 |
| KPNHRK [6mer-2-841] | 33 |
| RPTMKR [6mer-2-821] | 33 |
| RFSFKR [6mer-2-846] | 30 |
| RDPKKK [6mer-2-844] | 22 |
| KYAEKK [6mer-2-827] | 13 |

| Binder | Binding affinity (RU) |
| --- | --- |
| KMKEKR [6mer-2-845] | 14 |
| RMTWRK [6mer-2-831] | 29 |
| RNTPRK [6mer-2-826] | 11 |
| RMTERK [6mer-2-848] | 29 |
| RMKKKR [6mer-2-828] | 32 |
| RITNKR [6mer-2-824] | 26 |
| REDFRR [6mer-2-837] | 32 |
| KIHARK [6mer-2-825] | 11 |
| KTPERK [6mer-2-818] | 13 |
| KKKIRR [6mer-2-829] | 22 |
| KTSMKR [6mer-2-850] | 16 |
| KNHNRR [6mer-2-839] | 32 |
| KKMDRR [6mer-2-813] | 29 |
| KAPDRK [6mer-2-843] | 33 |
| REDWRK [6mer-2-823] | 25 |
| RCTAKK [6mer-2-822] | 13 |
| KHTGRR [6mer-2-853] | 29 |
| RYCHKR [6mer-2-847] | 22 |
| RKMGKR [6mer-2-816] | 15 |
| RCNWKR [6mer-2-854] | 23 |
| RFWWKR [6mer-2-834] | 28 |
| KNTMKR [6mer-2-836] | 26 |

More lines, now with the values ahead:

| Binding affinity (RU) | Binder |
| --- | --- |
| 21 | KDTDRK [6mer-2-861] |
| 21 | KMTEKK [6mer-2-870] |
| 31 | KPNFRR [6mer-2-860] |
| 22 | RTNEKR [6mer-2-883] |
| 11 | KMTMKK [6mer-2-884] |
| 17 | KPPERR [6mer-2-877] |
| 24 | KETVRR [6mer-2-878] |
| 13 | KTWVRR [6mer-2-886] |
| 15 | RTPAKR [6mer-2-882] |
| 32 | KYWEKK [6mer-2-867] |
| 31 | REMPKR [6mer-2-871] |
| 30 | RTPNRR [6mer-2-868] |
| 11 | KNWGRR [6mer-2-873] |
| 17 | KEDNKR [6mer-2-876] |
| 33 | KIHFRK [6mer-2-874] |
| 30 | KEEHRR [6mer-2-858] |
| 14 | KEPMRR [6mer-2-856] |

| Binding affinity (RU) | Binder |
| --- | --- |
| 17 | RIAKRK [6mer-2-888] |
| 12 | REWDKK [6mer-2-889] |
| 28 | KTHFRK [6mer-2-872] |
| 18 | RCPKKR [6mer-2-887] |
| 16 | RHCNRK [6mer-2-865] |
| 13 | RIDHRK [6mer-2-875] |
| 21 | RMDFRK [6mer-2-859] |
| 17 | KCMVRR [6mer-2-885] |
| 12 | RTHHKK [6mer-2-880] |
| 33 | KDTEKK [6mer-2-881] |
| 20 | KHTEKK [6mer-2-857] |
| 18 | RHDHKR [6mer-2-869] |
| 17 | RKHWRR [6mer-2-863] |
| 19 | RTMDRR [6mer-2-879] |
| 29 | RHTFKK [6mer-2-862] |
| 24 | RDNPKK [6mer-2-866] |
| 12 | RKCAKK [6mer-2-864] |
